Target: MERTK (UniProt Q12866)
Experiment: phosphorylation enrichment, bacterial display (enrichment ratio); higher = better substrate or ligand; peptides without Tyr show the background
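Also: 11-residue human phosphosite peptides and single-mutation variants displayed on the E. coli surface, counted by deep sequencing, each peptide's frequency after selection divided by its frequency in the unselected input library; frequency after pTyr selection over input frequency; kinase dosed for 20-30% of maximal phosphorylation in three min.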

MERTK, sequence (Q12866 whole entry, looked up): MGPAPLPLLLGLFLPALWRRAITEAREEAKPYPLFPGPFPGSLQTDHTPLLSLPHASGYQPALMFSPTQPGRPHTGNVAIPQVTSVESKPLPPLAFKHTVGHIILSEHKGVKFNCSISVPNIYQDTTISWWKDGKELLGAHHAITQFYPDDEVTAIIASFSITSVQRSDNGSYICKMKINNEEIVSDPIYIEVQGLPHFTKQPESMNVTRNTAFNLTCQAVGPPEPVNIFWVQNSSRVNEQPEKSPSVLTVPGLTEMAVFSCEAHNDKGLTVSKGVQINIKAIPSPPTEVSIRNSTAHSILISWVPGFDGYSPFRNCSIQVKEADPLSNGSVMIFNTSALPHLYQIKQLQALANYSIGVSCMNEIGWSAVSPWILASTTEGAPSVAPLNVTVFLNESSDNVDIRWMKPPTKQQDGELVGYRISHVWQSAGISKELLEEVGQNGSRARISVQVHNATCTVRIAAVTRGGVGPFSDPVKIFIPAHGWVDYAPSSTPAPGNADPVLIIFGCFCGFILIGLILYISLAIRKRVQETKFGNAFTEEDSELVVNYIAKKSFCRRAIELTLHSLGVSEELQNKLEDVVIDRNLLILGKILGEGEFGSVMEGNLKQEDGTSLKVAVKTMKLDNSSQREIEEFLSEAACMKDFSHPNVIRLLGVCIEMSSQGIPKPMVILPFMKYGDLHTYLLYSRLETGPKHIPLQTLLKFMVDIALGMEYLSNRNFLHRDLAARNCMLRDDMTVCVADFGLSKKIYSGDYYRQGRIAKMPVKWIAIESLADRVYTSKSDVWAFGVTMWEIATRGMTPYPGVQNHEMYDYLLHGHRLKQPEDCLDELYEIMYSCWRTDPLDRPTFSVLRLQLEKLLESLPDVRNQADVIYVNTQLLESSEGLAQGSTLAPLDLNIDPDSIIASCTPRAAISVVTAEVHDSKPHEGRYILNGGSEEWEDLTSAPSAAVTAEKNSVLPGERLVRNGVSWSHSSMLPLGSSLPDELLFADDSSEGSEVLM

| Sequence | phosphorylation enrichment |
| --- | --- |
| PCNLIYFGEHP [TRPV6_Y201] | 2.21 |
| KYGTNYRVGSS [CPO_Y278] | 0.377 |
| RLQKLYLDRNL [IGFALS_Y248] | 0.868 |
| DRTVNYVLKCR [PLEKHG4_Y1068] | 0.357 |
| VDGSVYKLPPS [GCK_Y413_H416P] | 0.5 |
| ALVFLYFCIIF [SIGLEC12_Y494] | 0.636 |
| FSQNICIQNRN [PKP2_Y631_Y631C_YF] | 0.388 |
| DELDKYSEALK [TPM1_Y60] | 0.395 |
| FDDIAYIRKAL [PIK3CA_Y1021_T1025A] | 0.454 |
| VHVEVYDPPSP | 0.775 |
| QITQVYGFYDE [PPP2CA_Y127] | 1.58 |
| LKGQVYILGQE [ASS1_Y359_R363Q] | 0.843 |
| YHLGKYLQEVL [KLB_Y910_Y906H] | 0.383 |
| SRGLAYPARSA [LEMD2_Y122_P126S] | 0.35 |
| FLEKFYKFGCR [NNMT_Y25_S29C_YF] | 0.432 |
| NTVDFYDLFGG [PTPN11_Y63_G60V_YF] | 1.23 |
| GLSSAYGGLTS [KRT8_Y427] | 0.341 |

| Sequence | phosphorylation enrichment |
| --- | --- |
| FGSSSYRGAGG [RPA2_Y14_G15R_YF] | 0.568 |
| VYLGAYDHFLP [SLC22A5_Y486_R488H] | 9.45 |
| YVSLIYTNYEA [GSTP1_Y109_I105V] | 4.74 |
| GVMLLYFGRFN [ADGRD1_Y85_T82M_YF] | 0.393 |
| HNQDDYSYPSR [LDLR_Y845_G844D] | 0.653 |
| HNGDRYFKGIV [DCX_Y64_R59H] | 0.692 |
| EVASVYQSFQP [MAVS_Y92_YF] | 2.03 |
| RGRDSYGGPPR [RBMX_Y190] | 0.632 |
| ARGMEYLASKN [FGFR1_Y613_K618N] | 0.355 |
| RASSVYTRSTG [CCR5_Y339] | 1.21 |
| DSYSSYCNAVA [SLC20A2_Y436] | 0.788 |
| DFTEAYNPKIK [CLK1_Y305_YF] | 0.501 |
| RIVTTYIWERE [DNM2_Y463_R465W] | 0.403 |
| LDFNEYFRNLN [HPRT1_Y198_D201N_YF] | 1.02 |
| PYSNPYENSLI [EPOR_Y489] | 0.912 |
| KAWGIYDCQQP [CYP3A7_Y75_V71A] | 5.53 |

System: AncSZ
Experiment: as above

| Sequence | phosphorylation enrichment |
| --- | --- |
| PCNLIYFGEHP [TRPV6_Y201] | 3.19 |
| KYGTNYRVGSS [CPO_Y278] | 0.438 |
| RLQKLYLDRNL [IGFALS_Y248] | 0.812 |
| DRTVNYVLKCR [PLEKHG4_Y1068] | 1.15 |
| VDGSVYKLPPS [GCK_Y413_H416P] | 0.728 |
| ALVFLYFCIIF [SIGLEC12_Y494] | 1.04 |
| FSQNICIQNRN [PKP2_Y631_Y631C_YF] | 0.766 |
| DELDKYSEALK [TPM1_Y60] | 1.19 |
| FDDIAYIRKAL [PIK3CA_Y1021_T1025A] | 0.708 |
| VHVEVYDPPSP | 1.65 |
| QITQVYGFYDE [PPP2CA_Y127] | 1.24 |
| LKGQVYILGQE [ASS1_Y359_R363Q] | 1.84 |
| YHLGKYLQEVL [KLB_Y910_Y906H] | 1.18 |
| SRGLAYPARSA [LEMD2_Y122_P126S] | 0.501 |
| FLEKFYKFGCR [NNMT_Y25_S29C_YF] | 0.934 |
| NTVDFYDLFGG [PTPN11_Y63_G60V_YF] | 1.06 |
| GLSSAYGGLTS [KRT8_Y427] | 0.516 |

| Sequence | phosphorylation enrichment |
| --- | --- |
| FGSSSYRGAGG [RPA2_Y14_G15R_YF] | 0.64 |
| VYLGAYDHFLP [SLC22A5_Y486_R488H] | 2.28 |
| YVSLIYTNYEA [GSTP1_Y109_I105V] | 1.84 |
| GVMLLYFGRFN [ADGRD1_Y85_T82M_YF] | 1.4 |
| HNQDDYSYPSR [LDLR_Y845_G844D] | 5.73 |
| HNGDRYFKGIV [DCX_Y64_R59H] | 0.707 |
| EVASVYQSFQP [MAVS_Y92_YF] | 1.22 |
| RGRDSYGGPPR [RBMX_Y190] | 0.744 |
| ARGMEYLASKN [FGFR1_Y613_K618N] | 0.452 |
| RASSVYTRSTG [CCR5_Y339] | 0.651 |
| DSYSSYCNAVA [SLC20A2_Y436] | 1.44 |
| DFTEAYNPKIK [CLK1_Y305_YF] | 0.874 |
| RIVTTYIWERE [DNM2_Y463_R465W] | 1.82 |
| LDFNEYFRNLN [HPRT1_Y198_D201N_YF] | 2.42 |
| PYSNPYENSLI [EPOR_Y489] | 1.17 |
| KAWGIYDCQQP [CYP3A7_Y75_V71A] | 1.73 |

Target: Fes (UniProt P07332)
Sequence (P07332 whole entry, looked up): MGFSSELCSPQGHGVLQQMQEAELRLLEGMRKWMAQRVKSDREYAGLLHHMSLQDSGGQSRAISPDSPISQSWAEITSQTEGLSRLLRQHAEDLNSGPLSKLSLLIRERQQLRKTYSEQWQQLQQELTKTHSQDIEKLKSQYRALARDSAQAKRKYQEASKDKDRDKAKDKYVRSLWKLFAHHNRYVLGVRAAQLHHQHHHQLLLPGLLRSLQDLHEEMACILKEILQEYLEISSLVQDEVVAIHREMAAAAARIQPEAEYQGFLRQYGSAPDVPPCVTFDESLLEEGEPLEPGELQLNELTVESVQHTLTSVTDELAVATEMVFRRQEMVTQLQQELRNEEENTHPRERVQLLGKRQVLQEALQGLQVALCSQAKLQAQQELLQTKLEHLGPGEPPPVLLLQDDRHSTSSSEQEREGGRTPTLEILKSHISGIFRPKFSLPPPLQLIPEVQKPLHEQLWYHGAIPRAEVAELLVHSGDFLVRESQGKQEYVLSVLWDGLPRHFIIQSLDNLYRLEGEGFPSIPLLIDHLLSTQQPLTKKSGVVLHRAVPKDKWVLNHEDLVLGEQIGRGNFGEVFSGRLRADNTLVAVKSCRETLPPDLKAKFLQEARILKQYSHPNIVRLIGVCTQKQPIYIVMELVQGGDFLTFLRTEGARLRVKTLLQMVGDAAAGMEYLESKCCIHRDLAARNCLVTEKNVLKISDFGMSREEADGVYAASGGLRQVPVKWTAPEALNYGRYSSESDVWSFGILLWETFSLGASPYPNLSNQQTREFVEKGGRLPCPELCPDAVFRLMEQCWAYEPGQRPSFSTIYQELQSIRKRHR
Experiment: as above

| Sequence | phosphorylation enrichment |
| --- | --- |
| PCNLIYFGEHP [TRPV6_Y201] | 2.64 |
| KYGTNYRVGSS [CPO_Y278] | 0.549 |
| RLQKLYLDRNL [IGFALS_Y248] | 1.23 |
| DRTVNYVLKCR [PLEKHG4_Y1068] | 1.17 |
| VDGSVYKLPPS [GCK_Y413_H416P] | 0.795 |
| ALVFLYFCIIF [SIGLEC12_Y494] | 1.16 |
| FSQNICIQNRN [PKP2_Y631_Y631C_YF] | 0.903 |
| DELDKYSEALK [TPM1_Y60] | 1.03 |
| FDDIAYIRKAL [PIK3CA_Y1021_T1025A] | 0.685 |
| VHVEVYDPPSP | 1.3 |
| QITQVYGFYDE [PPP2CA_Y127] | 1.21 |
| LKGQVYILGQE [ASS1_Y359_R363Q] | 2.47 |
| YHLGKYLQEVL [KLB_Y910_Y906H] | 1.1 |
| SRGLAYPARSA [LEMD2_Y122_P126S] | 0.529 |
| FLEKFYKFGCR [NNMT_Y25_S29C_YF] | 1.12 |
| NTVDFYDLFGG [PTPN11_Y63_G60V_YF] | 0.951 |
| GLSSAYGGLTS [KRT8_Y427] | 0.584 |

| Sequence | phosphorylation enrichment |
| --- | --- |
| FGSSSYRGAGG [RPA2_Y14_G15R_YF] | 0.876 |
| VYLGAYDHFLP [SLC22A5_Y486_R488H] | 1.25 |
| YVSLIYTNYEA [GSTP1_Y109_I105V] | 1.36 |
| GVMLLYFGRFN [ADGRD1_Y85_T82M_YF] | 1.26 |
| HNQDDYSYPSR [LDLR_Y845_G844D] | 0.856 |
| HNGDRYFKGIV [DCX_Y64_R59H] | 0.716 |
| EVASVYQSFQP [MAVS_Y92_YF] | 1.2 |
| RGRDSYGGPPR [RBMX_Y190] | 0.734 |
| ARGMEYLASKN [FGFR1_Y613_K618N] | 0.511 |
| RASSVYTRSTG [CCR5_Y339] | 1.5 |
| DSYSSYCNAVA [SLC20A2_Y436] | 1.23 |
| DFTEAYNPKIK [CLK1_Y305_YF] | 1.11 |
| RIVTTYIWERE [DNM2_Y463_R465W] | 1.31 |
| LDFNEYFRNLN [HPRT1_Y198_D201N_YF] | 2.65 |
| PYSNPYENSLI [EPOR_Y489] | 1.16 |
| KAWGIYDCQQP [CYP3A7_Y75_V71A] | 1.56 |

System: Fer (mouse)
Experiment: as above

| Sequence | phosphorylation enrichment |
| --- | --- |
| PCNLIYFGEHP [TRPV6_Y201] | 1.07 |
| KYGTNYRVGSS [CPO_Y278] | 0.308 |
| RLQKLYLDRNL [IGFALS_Y248] | 0.795 |
| DRTVNYVLKCR [PLEKHG4_Y1068] | 0.566 |
| VDGSVYKLPPS [GCK_Y413_H416P] | 0.514 |
| ALVFLYFCIIF [SIGLEC12_Y494] | 0.6 |
| FSQNICIQNRN [PKP2_Y631_Y631C_YF] | 0.535 |
| DELDKYSEALK [TPM1_Y60] | 0.472 |
| FDDIAYIRKAL [PIK3CA_Y1021_T1025A] | 0.387 |
| VHVEVYDPPSP | 0.758 |
| QITQVYGFYDE [PPP2CA_Y127] | 1.3 |
| LKGQVYILGQE [ASS1_Y359_R363Q] | 0.802 |
| YHLGKYLQEVL [KLB_Y910_Y906H] | 0.452 |
| SRGLAYPARSA [LEMD2_Y122_P126S] | 0.381 |
| FLEKFYKFGCR [NNMT_Y25_S29C_YF] | 0.546 |
| NTVDFYDLFGG [PTPN11_Y63_G60V_YF] | 0.953 |
| GLSSAYGGLTS [KRT8_Y427] | 0.422 |

| Sequence | phosphorylation enrichment |
| --- | --- |
| FGSSSYRGAGG [RPA2_Y14_G15R_YF] | 0.409 |
| VYLGAYDHFLP [SLC22A5_Y486_R488H] | 7.24 |
| YVSLIYTNYEA [GSTP1_Y109_I105V] | 3.36 |
| GVMLLYFGRFN [ADGRD1_Y85_T82M_YF] | 0.508 |
| HNQDDYSYPSR [LDLR_Y845_G844D] | 0.567 |
| HNGDRYFKGIV [DCX_Y64_R59H] | 0.366 |
| EVASVYQSFQP [MAVS_Y92_YF] | 5.55 |
| RGRDSYGGPPR [RBMX_Y190] | 0.589 |
| ARGMEYLASKN [FGFR1_Y613_K618N] | 0.271 |
| RASSVYTRSTG [CCR5_Y339] | 0.552 |
| DSYSSYCNAVA [SLC20A2_Y436] | 0.687 |
| DFTEAYNPKIK [CLK1_Y305_YF] | 0.466 |
| RIVTTYIWERE [DNM2_Y463_R465W] | 0.538 |
| LDFNEYFRNLN [HPRT1_Y198_D201N_YF] | 1.35 |
| PYSNPYENSLI [EPOR_Y489] | 2.63 |
| KAWGIYDCQQP [CYP3A7_Y75_V71A] | 3.52 |

— the supplement of paper PMC10065799, “High-throughput profiling of sequence recognition by tyrosine kinases and SH2 domains using bacterial peptide display” (eLife, 2023)
